Test results published in PMC2944812.

Molecular target: Human C1q (human) (UniProt P02745)
Assay: flow cytometry on cells; Washed TRAP-activated human platelets incubated with or without purified C1q (10 ug/mL), washed, then HAGG (0-10 ug/mL) for 30 min at RT; HAGG detected with rabbit anti-human IgG (Fab2)-FITC; C1q held on the platelet surface

Sequence of UniProt P02745 (P02745 23-245, chain 1 of 3): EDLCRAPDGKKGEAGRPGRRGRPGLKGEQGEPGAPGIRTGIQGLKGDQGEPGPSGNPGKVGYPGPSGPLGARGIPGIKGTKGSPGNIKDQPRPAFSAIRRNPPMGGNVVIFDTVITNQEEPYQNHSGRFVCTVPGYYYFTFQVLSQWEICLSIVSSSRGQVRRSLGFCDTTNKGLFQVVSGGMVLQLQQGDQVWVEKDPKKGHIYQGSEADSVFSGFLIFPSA
Sequence of UniProt P02745 (P02746 28-253, chain 2 of 3, further chain): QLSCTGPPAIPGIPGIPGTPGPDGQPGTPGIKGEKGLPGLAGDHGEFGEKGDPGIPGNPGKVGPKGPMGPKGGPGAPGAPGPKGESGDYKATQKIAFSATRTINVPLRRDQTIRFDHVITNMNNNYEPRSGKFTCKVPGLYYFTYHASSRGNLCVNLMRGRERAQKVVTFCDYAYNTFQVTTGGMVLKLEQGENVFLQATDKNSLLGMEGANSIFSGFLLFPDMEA
Sequence of UniProt P02745 (P02747 29-245, chain 3 of 3, further chain): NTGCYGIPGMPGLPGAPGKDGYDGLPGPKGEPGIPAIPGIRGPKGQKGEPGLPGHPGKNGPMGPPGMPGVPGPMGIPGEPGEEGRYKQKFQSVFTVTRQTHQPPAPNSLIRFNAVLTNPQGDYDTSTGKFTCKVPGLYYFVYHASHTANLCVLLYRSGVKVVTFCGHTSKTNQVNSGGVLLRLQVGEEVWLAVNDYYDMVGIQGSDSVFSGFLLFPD

## heat-aggregated gamma globulin (natural protein)
  fold increase of HAGG binding to activated platelets with C1q against without C1q: 2 fold
